This assay concerns the target T1, human transferrin receptor (recombinant, for surface plasmon resonance) (human, UniProt P02786 89-760).
T1 construct: also called huTfR; human transferrin receptor-biotinylated
Put plainly: SPR 25C.

Substitutions are numbered along the chain they refer to.

T1 sequence (P02786 89-760 limits assumed): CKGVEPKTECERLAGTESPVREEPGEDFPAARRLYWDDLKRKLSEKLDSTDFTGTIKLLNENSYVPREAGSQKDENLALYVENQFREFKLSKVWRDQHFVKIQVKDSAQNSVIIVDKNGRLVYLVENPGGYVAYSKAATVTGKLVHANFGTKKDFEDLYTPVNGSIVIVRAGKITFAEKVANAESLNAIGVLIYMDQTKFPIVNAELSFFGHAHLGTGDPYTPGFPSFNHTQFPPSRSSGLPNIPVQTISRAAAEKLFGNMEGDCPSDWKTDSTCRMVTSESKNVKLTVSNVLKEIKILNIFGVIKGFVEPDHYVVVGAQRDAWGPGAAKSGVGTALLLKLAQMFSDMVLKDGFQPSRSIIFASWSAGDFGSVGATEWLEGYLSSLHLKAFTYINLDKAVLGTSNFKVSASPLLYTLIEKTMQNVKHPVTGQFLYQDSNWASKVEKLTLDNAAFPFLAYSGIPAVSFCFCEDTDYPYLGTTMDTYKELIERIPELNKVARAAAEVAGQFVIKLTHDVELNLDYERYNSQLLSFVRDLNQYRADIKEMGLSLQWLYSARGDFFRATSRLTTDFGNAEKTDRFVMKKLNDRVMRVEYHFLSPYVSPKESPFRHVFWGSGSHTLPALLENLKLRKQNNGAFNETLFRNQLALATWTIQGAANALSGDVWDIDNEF

B1: 2/99 VH7/VL5 (antibody, V domains shown)
VH: QQLVETGGGLIQPGGSLRLSCAASGFSLSSYAMSWVRQAPGKGLEWIGYIWSGGSTDYASWAKGRFTISRDNSKNTLYLQMNSLRAEDTAVYYCARRYGTSYPDYGDANGFDPWGQGTLVTVSS
VL: DIQMTQSPSSLSASVGDRVTITCRASQSISSYLSWYQQKPGKAPKLLIYRASTLASGVPSRFSGSGSGTDFTLTISSLQPEDFATYYCQQSYSSSNVDNTFGGGTKVEIK
Regarding B1, the koff was found to be 0.00135 s⁻¹.

B2: 2/99 VH20/VL5 (antibody, V domains shown)
VH: QSMQESGPGLVKPSQTLSLTCTVSGFSLSSYAMSWIRQHPGKGLEWIGYIWSGGSTDYAPSLKSRVTISVDTSKNQVSLKLSSVTAADTAVYYCARRYGTSYPDYGDANGFDPWGQGTLVTVSS
VL: B1 VL
Consider B2, for which the koff was found to be 0.00352 s⁻¹.

B3: 2/99 VH17/VL5 (antibody, V domains shown)
VH: B2 VH with S2Q, M3L, Q15E, I36V, H39P, A59N, V70K, Q116P
VL: B1 VL
With B3, the koff stood at 0.00123 s⁻¹.

B4: 2/99 VH16/VL6 (antibody, V domains shown)
VH: B2 VH with S2Q, M3L, Q15E, I36V, H39P, A59N, Q116P
VL: B1 VL with D1A, M4L
Regarding B4, the koff came out at 0.00339 s⁻¹.

B5: 2/99 VH1/VL7 (antibody, V domains shown)
VH: B1 VH with Q1V, I47V, S60D, W61S, A62V
VL: B1 VL with D1A, M4L, S34A
As for B5, the koff turned out to be 0.00733 s⁻¹.

B6: 2/99 VH16/VL5 (antibody, V domains shown)
VH: B2 VH with S2Q, M3L, Q15E, I36V, H39P, A59N, Q116P
VL: B1 VL
For the molecule B6, the koff was found to be 0.00223 s⁻¹.

B7: 2/99 VH22/VL6 (antibody, V domains shown)
VH: B2 VH with I36V, P60S, S61W, L62A
VL: B1 VL with D1A, M4L
On to B7, for which the koff was 0.00214 s⁻¹.

B8: 2/99 VH1/VL6 (antibody, V domains shown)
VH: B1 VH with Q1V, I47V, S60D, W61S, A62V
VL: B1 VL with D1A, M4L
Take B8: the koff came out at 0.00538 s⁻¹.

B9: 2/99 VH6/VL6 (antibody, V domains shown)
VH: B1 VH with S60D, W61S, A62V
VL: B1 VL with D1A, M4L
B9: the koff came out at 0.00306 s⁻¹.

B10: 2/99 VH9/VL6 (antibody, V domains shown)
VH: B1 VH with V4L, T6S, I11V, S27T, L28F, I47V, S60D, W61S, A62V, R96K
VL: B1 VL with D1A, M4L
With B10, the koff is 0.00683 s⁻¹.

B11: 2/99 VH12/VL5 (antibody, V domains shown)
VH: QVQLQESGPGLVKPSETLSLTCTVSGFSLSSYAMSWIRQPPGKGLEWIGYIWSGGSTDYNPSLKSRVTISVDTSKNQFSLKLSSVTAADTAVYYCARRYGTSYPDYGDANGFDPWGQGTLVTVSS
VL: B1 VL
Consider B11, for which the koff came out at 0.00582 s⁻¹.

B12: 2/99 VH23-DANG/VL5 (antibody, V domains shown)
VH: QSMQESGPGLVKPSQTLSLTCTVSGFSLSSYAMSWIRQHPGKGLEWIGYIWSGGSTDYASWAKSRVTISKTSTTVSLKLSSVTAADTAVYYCARRYGTSYPDYGDANGFDPWGQGTLVTVSS
VL: B1 VL
Turning to B12, the koff turned out to be 0.00088 s⁻¹.

B13: 2/99 VH13/VL6 (antibody, V domains shown)
VH: B11 VH with F78V
VL: B1 VL with D1A, M4L
For the molecule B13, the koff was determined as 0.00365 s⁻¹.

B14: 2/99 VH21/VL5 (antibody, V domains shown)
VH: B2 VH with P60S, S61W, L62A
VL: B1 VL
B14: the koff came out at 0.00137 s⁻¹.

B15: 2/99 VH11/VL5 (antibody, V domains shown)
VH: B1 VH with V4L, T6S, I11V, I47V, S60D, W61S, A62V
VL: B1 VL
Regarding B15, the koff came to 0.00456 s⁻¹.

B16: 2/99 VH9/VL5 (antibody, V domains shown)
VH: B1 VH with V4L, T6S, I11V, S27T, L28F, I47V, S60D, W61S, A62V, R96K
VL: B1 VL
With B16, the koff worked out at 0.0035 s⁻¹.

B17: 2/99 VH15/VL5 (antibody, V domains shown)
VH: B2 VH with S2Q, M3L, Q15E, I36V, H39P, A59N
VL: B1 VL
As to B17, the koff is 0.00214 s⁻¹.

B18: 2/99 VH5/VL6 (antibody, V domains shown)
VH: B1 VH with Q2S, L3M, V4E, I47V, S60D, W61S, A62V, Q116P
VL: B1 VL with D1A, M4L
B18: the koff is 0.00464 s⁻¹.

B19: 2/99 VH19/VL5 (antibody, V domains shown)
VH: B2 VH with V77F
VL: B1 VL
As for B19, the koff is 0.001 s⁻¹.

B20: 2/99 VH17/VL6 (antibody, V domains shown)
VH: B2 VH with S2Q, M3L, Q15E, I36V, H39P, A59N, V70K, Q116P
VL: B1 VL with D1A, M4L
B20: the koff was 0.00171 s⁻¹.

B21: 2/99 VH18/VL5 (antibody, V domains shown)
VH: B11 VH with E16Q, P40H, N60A
VL: B1 VL
Take B21: the koff was 0.00349 s⁻¹.

B22: 2/99 VH12/VL6 (antibody, V domains shown)
VH: B11 VH
VL: B1 VL with D1A, M4L
As for B22, the koff stood at 0.00705 s⁻¹.

B23: 2/99 VH8/VL5 (antibody, V domains shown)
VH: QQLVETGGGLIQPGGSLRLSCAASGFSLSSYAMSWVRQAPGKGLEWIGYIWSGGSTDYASWAKGRFTISKTSTTLYLQMNSLRAEDTAVYYCARRYGTSYPDYGDANGFDPWGQGTLVTVSS
VL: B1 VL
As for B23, the koff worked out at 0.00107 s⁻¹.

B24: 2/99 VH8/VL6 (antibody, V domains shown)
VH: B23 VH
VL: B1 VL with D1A, M4L
With B24, the koff came out at 0.0014 s⁻¹.

B25: 2/99 VH18/VL6 (antibody, V domains shown)
VH: B11 VH with E16Q, P40H, N60A
VL: B1 VL with D1A, M4L
In the case of B25, the off-rate (koff) was found to be 0.00674 s⁻¹.

B26: 2/99 VH20/VL6 (antibody, V domains shown)
VH: B2 VH
VL: B1 VL with D1A, M4L
Consider B26, for which the koff was 0.00606 s⁻¹.

B27: 2/99 VH13/VL5 (antibody, V domains shown)
VH: B11 VH with F78V
VL: B1 VL
For B27, the koff is 0.00218 s⁻¹.

B28: 2/99 VH15/VL6 (antibody, V domains shown)
VH: B2 VH with S2Q, M3L, Q15E, I36V, H39P, A59N
VL: B1 VL with D1A, M4L
Turning to B28, the koff is 0.0035 s⁻¹.

B29: 2/99 VH21/VL6 (antibody, V domains shown)
VH: B2 VH with P60S, S61W, L62A
VL: B1 VL with D1A, M4L
Regarding B29, the koff stood at 0.00207 s⁻¹.

B30: 2/99 VH2/VL6 (antibody, V domains shown)
VH: EVQLVETGGGLIQPGGSLRLSCAASGFSLSSYAMSWVRQAPGKGLEWVGYIWSGGSTDYADSVKGRFTISRDNSKNTLYLQMNSLRAEDTAVYYCARRYGTSYPDYGDANGFDPWGQGTLVTVSS
VL: B1 VL with D1A, M4L
On to B30, for which the koff was 0.00555 s⁻¹.

B31: 2/99 VH11/VL6 (antibody, V domains shown)
VH: B1 VH with V4L, T6S, I11V, I47V, S60D, W61S, A62V
VL: B1 VL with D1A, M4L
For the molecule B31, the koff came to 0.00671 s⁻¹.

B32: 2/99 VH2/VL7 (antibody, V domains shown)
VH: B30 VH
VL: B1 VL with D1A, M4L, S34A
B32: the koff was determined as 0.0075 s⁻¹.

B33: 2/99 VH19/VL6 (antibody, V domains shown)
VH: B2 VH with V77F
VL: B1 VL with D1A, M4L
Regarding B33, the off-rate constant (koff) amounted to 0.001 s⁻¹.

B34: 2/99 VH22/VL5 (antibody, V domains shown)
VH: B2 VH with I36V, P60S, S61W, L62A
VL: B1 VL
For B34, the koff worked out at 0.00141 s⁻¹.

What is called koff is a measure of how fast the partners let go of each other.

The values are drawn from patent US20180291110A1 (Hoffmann-La Roche, published 2018).
